The record followed here is patent US20120039897A1 (PHILIPPS UNIVERSITAET MARBURG, published 2012).

Where a chain is given by its changes, count along the chain named.

First the molecules themselves.
B1: recombinant Aβ(21-37) autoantibody 54/62 (antibody, V domains shown)
VH: EVQLVESGGGVVQPGGSLRLSCAASGFTFSSYWMSWVRQAPGKGLEWVASVKQDGSEKYYVDSVKGRFTISRDNAKNTLYLQMNSLRAEDTAVYYCARDGSSWYRDWFDPWGQGTLVTVS
VL: DIVLTQSPATLSLSPGERVTITCRASQSVNSYLAWYQQKPGQAPRLLIYGASTRATGIPDRFSGSGSGTDFTLTISRLEPEDFAVYYCQQYGSSQGTFGPGTKVDIKR
B2: recombinant Aβ(21-37) autoantibody 55/68 (antibody, V domains shown)
VH: EVQLVESGGGVVQPGGSLRLSCAASGITFRSYDMSWVRQAPGKGLEWVASVKQDGSEKYYVDSVKGRFTVSRDNAKNTLYLQMNSLRAEDTAVYYCARDAGRWADLAFDIWGQGTLVTVS
VL: B1 VL with V3Q, L4M, A9G, V19A, T20A, I21L, T22S, N30S, G50A, T53I
B3: recombinant Aβ(21-37) autoantibody 50/62 (antibody, V domains shown)
VH: B1 VH
VL: B1 VL with V3Q, L4M, V19A, T20A, I21L, T22S, S52A, T53S, D60A
B4: recombinant Aβ(21-37) autoantibody 50/67 (antibody, V domains shown)
VH: EVQLVESGGGVVQPGGSLRLSCAASGFTFRSYWMHWVRQAPGKGLEWVASVKQDGSEKYYVDSVKGRVTISLDTSKNQFSLKLSSVTAADTAVYYCARDGSSWYRDWFDPWGQGTLVSVS
VL: B1 VL with V3Q, L4M, V19A, T20A, I21L, T22S, S52A, T53S, D60A
B5: recombinant Aβ(21-37) autoantibody 47/56 (antibody, V domains shown)
VH: B1 VH with S30R, N74T, A75S, G100A
VL: B1 VL with D1E
B6: recombinant Aβ(21-37) autoantibody 55/69 (antibody, V domains shown)
VH: B1 VH with S30R, S35H, F68V, S71T, R72A, N74R
VL: B1 VL with V3Q, L4M, A9G, V19A, T20A, I21L, T22S, N30S, G50A, T53I
B7: recombinant Aβ(21-37) autoantibody 51/62 (antibody, V domains shown)
VH: B1 VH
VL: B1 VL with D1E, A25E, S28G, V29I, N30R, S31N
B8: recombinant Aβ(21-37) autoantibody 50/69 (antibody, V domains shown)
VH: B1 VH with S30R, S35H, F68V, S71T, R72A, N74R
VL: B1 VL with V3Q, L4M, V19A, T20A, I21L, T22S, S52A, T53S, D60A
B9: recombinant Aβ(21-37) autoantibody 50/68 (antibody, V domains shown)
VH: B2 VH
VL: B1 VL with V3Q, L4M, V19A, T20A, I21L, T22S, S52A, T53S, D60A
B10: recombinant Aβ(21-37) autoantibody 54/68 (antibody, V domains shown)
VH: B2 VH
VL: B1 VL
B11: recombinant Aβ(21-37) autoantibody 55/62 (antibody, V domains shown)
VH: B1 VH
VL: B1 VL with V3Q, L4M, A9G, V19A, T20A, I21L, T22S, N30S, G50A, T53I

The target of one assay is amyloid β peptide (antigen of the EIA of Table 2). In words: ELISA (EIA), amyloid β peptide immobilised; legend: (-) indicates no binding. The procedure: (§1) All transfectants that expressed immunoglobulin efficiently were tested in an ELISA based on binding to amyloid β peptide. Biosensor data is ranked on a qualitative affinity binding assessment of the antibody to the cys-dimer peptide as described below.
amyloid β peptide (antigen of the EIA of Table 2), sequence (peptide, as listed by the source): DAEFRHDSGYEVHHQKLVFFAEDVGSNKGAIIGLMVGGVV
Aβ(1-40) monomer, Aβ(1-40) oligomer, Aβ(1-40 Cys) oligomer, and control plate using bovine serum albumin (Sigma) or Aprotinin (Sigma) were immobilized at 1 μg/ml in PBS (50 μl per well) on a Nunc Maxisorb 96-well plate overnight at 4° C. Wells were washed once with 350 μl Wash Buffer (1×PBS, 0.05% (v/v) Tween-20 (Sigma)). Wells were then blocked with Blocking Buffer (2% (w/v) Difco Skim milk (BD) in PBS, 50-150 μl per well) for 2 hours at room-temperature and washed once with 350 μl Wash Buffer.
Consider B1, for which the binding result is given as “no binding (tested: 100 µg/ml starting concentration)”.
Still for that read-out and setting: the entry for B2 is “no binding (tested: 100 µg/ml starting concentration)”; for B3 it is “no binding (tested: 100 µg/ml starting concentration)”.
With B4, the binding result was “no binding (tested: 100 µg/ml starting concentration)”.
The same measure, in the same setting: in the case of B5 it was “no binding (tested: 100 µg/ml starting concentration)”; in that of B6, “no binding (tested: 100 µg/ml starting concentration)”; in that of B7, “no binding (tested: 100 µg/ml starting concentration)”.
Regarding B8, the binding result is “no binding (tested: 100 µg/ml starting concentration)”.
B9: the binding result is reported as “no binding (tested: 100 µg/ml starting concentration)”.
Regarding B10, the binding result was “no binding (tested: 100 µg/ml starting concentration)”.
The same measure, in the same setting: in the case of B11 it was “no binding (tested: 100 µg/ml starting concentration)”.

The target of a further assay is T1, Aβ(1-40 Cys) oligomer (Example 12A).
T1 construct: also called Aβ(1-40 Cys) dimer; cys-dimer peptide
T1 sequence (peptide, as listed by the source): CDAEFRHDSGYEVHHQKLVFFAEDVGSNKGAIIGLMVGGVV
As to the kind of experiment: Biacore, antibody captured on anti-human Ig chip, cys-dimer peptide injected; legend: (-) indicates no binding. The procedure: as §1
(§2) An anti-human immunoglobulin biosensor chip was prepared using a human antibody capture kit (Biacore, Sweden) as per manufacturer's instructions at flow rate of 5 μl/min with a 6 minute contact time during […] immobilisation. Approximately 10000 resonance units were achieved on all channels.
In the case of B1, the binding result is listed as “no binding (tested: peptide 20-50 µg/ml)”.
In the case of B2, the binding result was “no binding (tested: peptide 20-50 µg/ml)”.
Same read-out and setting: the entry for B3 is “no binding (tested: peptide 20-50 µg/ml)”; for B4 it is “no binding (tested: peptide 20-50 µg/ml)”.
Regarding B6, the binding result is given as “no binding (tested: peptide 20-50 µg/ml)”.
With B7, the binding result is “no binding (tested: peptide 20-50 µg/ml)”.
Same read-out and setting: the entry for B9 is “no binding (tested: peptide 20-50 µg/ml)”; for B10 it is “no binding (tested: peptide 20-50 µg/ml)”; for B11 it is “no binding (tested: peptide 20-50 µg/ml)”.

For the next assay the target is unchanged. In words: Biacore, antibody captured on anti-human Ig chip, peptide injected. On the procedure:
as §2
B5: the binding result is “no binding”.

For the next assay, the target named is T2, Aβ(1-40) monomer (Example 12A).
T2 construct: Sigma peptide, HFIP treated, kept in DMSO
The assay is described as above. The procedure:
as §2
For B5, the binding result is recorded as “no binding”.
